Laboratory results from PMC2928259 (Biochemistry, 2010).

Target: T1, Cbf5 (Pyrococcus furiosus, UniProt Q7LWY0 1-340)
T1 sequence (looked up): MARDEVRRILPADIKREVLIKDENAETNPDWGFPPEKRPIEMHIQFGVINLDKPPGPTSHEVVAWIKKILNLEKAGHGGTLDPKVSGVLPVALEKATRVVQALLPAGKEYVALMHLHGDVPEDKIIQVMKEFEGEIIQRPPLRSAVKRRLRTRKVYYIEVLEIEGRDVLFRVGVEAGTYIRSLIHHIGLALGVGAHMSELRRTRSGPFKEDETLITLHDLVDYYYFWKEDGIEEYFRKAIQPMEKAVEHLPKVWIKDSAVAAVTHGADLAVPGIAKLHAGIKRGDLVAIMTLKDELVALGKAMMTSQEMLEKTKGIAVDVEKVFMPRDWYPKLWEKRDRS
Test: crystal structure

binding result: binds
B1: Nop10 (natural protein, Pyrococcus furiosus)
chain: MRFRIRKCPKCGRYTLKEVCPVCGEKTKVAHPPRFSPEDPYGEYRRRWKREVLGIGRKEK
